Reference: doi:10.1101/2020.06.26.173310
Where two headings read alike, the source gives them in different places.

Legend:
[1] = target: response regulator from Agrobacterium fabrum (AtRR) (Agrobacterium fabrum strain C58) (UniProt Q7CY46); test: SPR
[2] = target: bacteriophytochrome from Deinococcus radiodurans (DrBphP) (Deinococcus radiodurans strain R1) (UniProt Q9RZA4); test: ITC
[3] = target: bacteriophytochrome from Deinococcus radiodurans (DrBphP) (Deinococcus radiodurans strain R1) (UniProt Q9RZA4); test: ITC; remark: listed apart in the source
[4] = target: response regulator from Deinococcus radiodurans (DrRR) (Deinococcus radiodurans strain R1) (UniProt Q9RZA5); test: SPR
[5] = target: response regulator from Deinococcus radiodurans (DrRR) (Deinococcus radiodurans strain R1) (UniProt Q9RZA5); test: SPR; remark: listed apart in the source
[6] = target: response regulator from Deinococcus radiodurans (DrRR) (Deinococcus radiodurans strain R1) (UniProt Q9RZA5); test: SPR; remark: listed apart in the source

Chain of bacteriophytochrome from Deinococcus radiodurans (DrBphP) (Deinococcus radiodurans strain R1) (Q9RZA4 whole entry): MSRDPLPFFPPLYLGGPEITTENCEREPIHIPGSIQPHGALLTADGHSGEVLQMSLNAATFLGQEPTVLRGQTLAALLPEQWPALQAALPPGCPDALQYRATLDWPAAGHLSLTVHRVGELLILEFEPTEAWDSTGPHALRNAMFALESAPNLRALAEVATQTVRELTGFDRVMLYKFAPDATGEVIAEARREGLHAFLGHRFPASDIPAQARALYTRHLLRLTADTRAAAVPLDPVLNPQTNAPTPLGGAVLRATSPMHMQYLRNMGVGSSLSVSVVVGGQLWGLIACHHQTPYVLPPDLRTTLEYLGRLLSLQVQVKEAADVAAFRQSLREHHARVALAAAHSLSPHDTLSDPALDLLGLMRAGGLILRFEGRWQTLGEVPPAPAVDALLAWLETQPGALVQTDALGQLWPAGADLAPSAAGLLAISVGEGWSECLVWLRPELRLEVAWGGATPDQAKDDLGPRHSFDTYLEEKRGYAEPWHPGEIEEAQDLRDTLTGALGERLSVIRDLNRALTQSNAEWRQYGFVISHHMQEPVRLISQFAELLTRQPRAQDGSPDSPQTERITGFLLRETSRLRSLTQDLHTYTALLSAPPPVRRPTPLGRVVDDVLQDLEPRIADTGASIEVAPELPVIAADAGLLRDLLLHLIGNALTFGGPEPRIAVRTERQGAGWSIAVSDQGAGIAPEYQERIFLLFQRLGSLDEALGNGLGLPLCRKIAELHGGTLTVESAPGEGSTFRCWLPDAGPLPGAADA

With “phytochrome 1 from Agrobacterium fabrum strain C58 (AgP1) (from UniProt Q7CY45 1-736) (natural protein)” the Kd [1] was > 200 µM.

Work on “response regulator from Deinococcus radiodurans (DrRR) (from UniProt Q9RZA5 1-149) (natural protein)” yielded a Kd [2] of 10.5 µM, a stoichiometry N [2] of 1 and a Kd [3] of 35 µM.

“bacteriophytochrome from Deinococcus radiodurans (DrBphP) (from UniProt Q9RZA4 1-755) (natural protein)” was tested, and the Kd [4] was 10 µM, the Kd [5] was 43 µM and the stoichiometry N [5] was 1. For the same substance, the Kd [6] was 60 µM.
